Source: US20030119733A1, “Compositions and methods for inhibiting hepatocyte invasion by malarial sporozoites” (New York University, priority 1992, published 2003)

Legend:
[1] = Clearance studies of 125I-labeled proteins; type: in vivo, mouse; conditions: monomeric fraction of CS27IVC, or Falc-1; i.v., between 2 and 15 minutes
Protocol: Clearance Studies: Mice were anesthetized with ether, and injected with 10^5 cpm of ^125I-labeled CS27IVC or Falc-1 via the periorbital sinus. At two, five and fifteen minutes after injection, the mice were exsanguinated, the organs removed, rinsed in TBS, blotted dry on filter paper, and counted for radioactivity. To estimate the amounts of blood contaminating the various organs, we repeated the same procedure in mice injected with 100 μl (1.5×10^5 cpm) of ^51Cr-labeled RBC. The mean volumes of blood in the liver, spleen and kidney of the exsanguinated animals were 75, 24, and 35 μl respectively. In all other organs, the amount of blood was negligible, i.e., less than 15 μl. The percent of injected dose of CS which was retained in the various organs was calculated as described as follows: [formula]
Radiolabeled Falc-1 (FIG. 30B), and the aggregated (FIG. 30C) and monomeric (FIG. 30A) fractions of radiolabeled CS27IVC proteins were injected intravenously into the retroorbital sinuses of mice. The animals were sacrificed 2, 5 and 15 minutes later, and the amounts of CS in the blood and in various organs were measured. Additionally, the radioactivity associated with the various organs was calculated. […]

[2] = Localization in organs after intravenous injection (light and electron microscopy); type: in vivo, mouse; conditions: 100 μg i.v., 5 minutes
Protocol: In other experiments, light and electron microscopy were used to localize CS in the various organs. The mice were injected i.v. with 100 μg of unlabeled CS27IVC or Falc-1 via the retroorbital plexus. The mice were exsanguinated five minutes after injection, the organs removed, rinsed in TBS, blotted dry, and then snap frozen in liquid nitrogen for light microscopy. For electron microscopy, the organs were cut into small pieces and fixed in a mixture of 0.1% glutaraldehyde and 4% paraformaldehyde.
Light Microscopy: The frozen tissue was embedded in Tissue Tek O.C.T. (Miles Inc., Naperville, Ill.) and cut into 5 μm sections. Sections were dried for 30 minutes, fixed for 10 minutes in 4% paraformaldehyde, and either used immediately or stored at 4° C. in PBS containing 1% BSA, 0.5% Tween-20. After blocking with the same buffer, the sections were incubated with mAb 2A10 conjugated to FITC, and examined in a fluorescence microscope.
Electron Microscopy: The fixed liver specimens were dehydrated in ethanol and embedded in Lowicryl K4M at −20° C. (Frevert et al., Infect. and Immun. 80:2349 (1992)). After UV polymerization, sections were cut with a RMC MT-7 ultramicrotome and stained by sequential incubation with 15 μg/ml mAb 2A10 and protein A gold 10 nm (PAG10) (1:30, Amersham, Arlington, Ill.). Cerami et al., Cell 70:1021 (1992). Control sections were strained only with the gold conjugate. […]

B1: Falciparum-1: Same as Falciparum-2 minus most of Region II+ (P. falciparum residues 43-348) (protein)
chain: AGTNLYNELEMNYYGKQENWYSLKKNSRSLGENDDGNNNNGDNGREGKDEDKRDGNNEDNEKLRKPKHKKLKQPGDGNPDPNANPNVDPNANPNVDPNANPNVDPNANPNANPNANPNANPNANPNANPNANPNANPNANPNANPNANPNANPNANPNANPNANPNVDPNANPNANPNANPNANPNANPNANPNANPNANPNANPNANPNANPNANPNANPNANPNANPNANPNANPNANPNANPNKNNQGNGQGHNMPNDPNRNVDENANANNAVKNNNNEEPSDKHIEQYLKKIKNSISTEWSP
injected counts recovered in the blood and in various organs [1]: about 40%
staining of kidney or other organs with FITC-labeled mAb 2A10 [2]: No staining
staining of liver with FITC-labeled mAb 2A10 [2]: No staining
